These are literature values, as cited in paper PMC9871243.

Data set [1] has as its system Influenza A virus hemagglutinin (cited work) (Influenza A virus). As to conditions: modifications in the cited assays not stated, PBS, pH and binding temperature not stated.
Data set [2] relates to Influenza A virus virion (cited work), hemagglutinin (Influenza A virus). As to conditions: modifications in the cited assays not stated, PBS, pH and binding temperature not stated.

Usually Kd stands for the concentration at which binding is half-saturated. On to “TTGGGTTATTTTGGGAGGGCGGGGGTT [RHA0385 (as in cited works)]”, for which the Kd was 0.6 nM in data set [1] and 0.0011 nM in data set [2].
